Assay results from article PMC6801465, “Efficient Epidermal Growth Factor Receptor Targeting Oligonucleotide as a Potential Molecule for Targeted Cancer Therapy”.

Assays:
[1] = target: T1, EGFR recombinant protein (Sino Biological 10001-H08H) (human, UniProt P00533 25-645); test: ELONA; Binding buffer: serum-free DMEM + 100 ug/mL tRNA; aptamers denatured 95 C 5 min, snap cooled on ice 10 min; ELONA 1 h (temperature not given); flow cytometry Kd; settings: protein: commercial, label: 5'-biotin (ELONA)
[2] = target: T1, EGFR recombinant protein (Sino …); test: ELONA; 100 nM aptamer; Binding buffer: serum-free DMEM + 100 ug/mL tRNA; aptamers denatured 95 C 5 min, snap cooled on ice 10 min; ELONA 1 h (temperature not given); flow cytometry Kd; settings: protein: commercial; label: 5'-biotin (ELONA)

B1: CL-4RNV616 (XNA)
RNA: UGCUUUGAUGUCGAUUCGACAGGAGGC
modifications: 2'-OMe on U, G, C; all A (positions 8, 14, 19, 21, 24) are DNA
Kd ([1]; 5'-FAM (cells)): 18.2 nM

B2: CL-4RNV617 (structured_RNA)
RNA: UGCUUUGAUGUCGAUUCGACAGGAGGC
modifications: none (all RNA)
binding result [2]: no binding

B3: CL-4RNV618 (structured_DNA)
DNA: TGCTTTGATGTCGATTCGACAGGAGGC
modifications: none (all DNA)
binding result [2]: no binding

B4: CL-4 (XNA)
RNA: GCCUUAGUAACGUGCUUUGAUGUCGAUUCGACAGGAGGC
modifications: 2'-F on all C and U; A and G are RNA
Kd [1]: 13.3 nM
